This is an account of results in US20200040064A1 (OHIO STATE INNOVATION FOUNDATION, published 2020).

The test concerns the target T1, protein A on wild type Staphylococcus aureus newman strain bacteria (Staphylococcus aureus (newman strain), UniProt P0A015 37-419).
T1 construct: also called wt S.A; Staphylococcus aureus (wt)
In words: flow cytometry, labeled CD64 on wt S. aureus in the absence of rituximab.

B1: fluorescently labeled human Fcγ receptor CD64 (receptor)
chain: QVDTTKAVITLQPPWVSVFQEETVTLHCEVLHLPGSSSTQWFLNGTATQTSTPSYRITSASVNDSGEYRCQRGLSGRSDPIQLEIHRGWLLLQVSSRVFTEGEPLALRCHAWKDKLVYNVLYYRNGKAFKFFHWNSNLTILKTNISHNGTYHCSGMGKHRYTSAGISVTVKELFPAPVLNASVTSPLLEGNLVTLSCETKLLLQRPGLQLYFSFYMGSKTLRGRNTSSEYQILTARREDSGLYWCEAATEDGNVLKRSPELELQVLGLQLPTP
modifications: fluorescently labeled
As for B1, the binding result is listed as “no binding”.
